Data as given in the nanobody polyreactivity screen of Harvey et al. (2022).

Assay: yeast display, Sf9 membrane polyspecificity reagent, FACS + sequencing; frameworks hold sequencing errors
Outline: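 Synthetic nanobody libraries on Saccharomyces cerevisiae BJ5465 were galactose-induced for 36–48 hours, stained 1 hour at 4 °C with 10% biotinylated, detergent-solubilized Sf9 membrane reagent and enriched on streptavidin microbeads. FACS then separated cells into low and high (top ~1%) gates by anti-HA (expression) and streptavidin (reagent binding) fluorescence. Genes were colony-PCR amplified, MiSeq 2 × 250 sequenced and CDR-length filtered. A clone's polyreactivity label is that of its gate of origin.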

Row | Sequence | polyreactivity (PSR sort gate)
1 | QVQLVESGGGLVQAGGSLRLSCAASGSTFYAYVMGWYRQAPGKERELVAAITSAGSTYYADSVKGRFTISRDNAKNTVYLQMNSLKPEDTAVYYCAAYYIVHSRQTQGFERYDYWGQGTQVTVSS | low polyreactivity
2 | QVQLVESGGGLVQAGGSLRLSCAASGSTFYAYVMGWYRQAPGKERELVAGISWSGGSTYYADSVKGRFTISRDNAKNTVYLQMNSLKPEDTAVYFFAADYYNTYGYDYWGQGTQVTVSS | low polyreactivity
3 | QVQLVESGGGLVQAGGSLRLSCAASGSTFYDNAMGWYRQAPGKERELVAAIDGGDTYYADSVKGRFTISRDNAKNTVYLQMISLKPEDTAVYYCAAESLPEISVGLGYWGQGTQVTVSS | low polyreactivity
4 | QVQLVESGGGLVQAGGSLRLSCAASGSTFYDNAMGWYRQAPGKERELVARIRWSGVRTYYADSVKGRFTISRDNAKNTVYLQMISLKPEDTAVYYCAAGRPRPHWWSLDYYYWGQGTQVTVSS | low polyreactivity
5 | QVQLVESGGGLVQAGGSLRLSCAASGSTFYFNAMGWYIQAPGKERELVADINYSGTSTYYADSVKGRFTISRDNAKNTVYLQMNSLKPEDTAVYYCAKSLPSSNTSTSYDYWGQGTQVTVSS | low polyreactivity
6 | QVQLVESGGGLVQAGGSLRLSCAASGSTFYFNAMGWYRQAPGKERELVATISDNDGSTNYADSVKGRFTISRDNAKNTVYLLMISLKPEDTGVYYCNADWYYYYEEDDYWGQGTQVTVSS | low polyreactivity
7 | QVQLVESGGGLVQAGGSLRLSCAASGSTFYFYAMGWYRQAPGKERELVAAISQSGGTTYYADSVKGRFTISRDNAKNTVFLQMNSLKPEDTAVYYCNADTDTWYTEYDYWGQGTQVTVSS | low polyreactivity
8 | QVQLVESGGGLVQAGGSLRLSCAASGSTFYFYAMGWYRQAPGKERELVAAISSSGGSTYYADSVKGRFTISRDNAKNTVYLQMNSLKPEDTAVYYCAADDAIYDSLDYWGQGTQVTVSS | low polyreactivity
9 | QVQLVESGGGLVQAGGSLRLSCAASGSTFYFYTMVWYRQAPGKEREFVAAISRRGGSTYYADSVKGRFTISRDNAKNTVYLQMNSLKPEDTAVYYCAAYTSTSDNGDSWGQGTQVTVSS | high polyreactivity
10 | QVQLVESGGGLVQAGGSLRLSCAASGSTFYGNAMGRYRQAPGKEWELVAAISWSGGSTYYADSVKGRFTISRDNAKNTVYLQMNSLKPEDTAVYYCNADGSDRVWYDGYDYWGQGTQVTVSS | low polyreactivity
11 | QVQLVESGGGLVQAGGSLRLSCAASGSTFYGNAMGWYRQAPGKERELVAAISWSGGSTYYADSVKGRFTISRDNAKNTVYLQMNSLKPEDTAVYYCNKDVLLYYVYGHDYWGQGTQVTVSS | low polyreactivity
12 | QVQLVESGGGLVQAGGSLRLSCAASGSTFYGYAMGWYRQAPGKERELVAAITRSGGSTYYADSVKGRFTISRDNAKNTVYLQMNSLKPEDTEVYYCNKYGYKGGVGYDYWGQGSQVTVSS | high polyreactivity
13 | QVQLVESGGGLVQAGGSLRLSCAASGSTFYGYAMGWYRQAPGKERELVAAITVRGGSTYYADSVKGRFTISRDNAKNTVYLQMNSLKPEDTAVYYCAKGRLRRTYYRNKFSFDYWGQGTQVTVSS | high polyreactivity
14 | QVQLVESGGGLVQAGGSLRLSCAASGSTFYGYTMGWYRQAPGKERELVAAISSSGSSTYYADSVKGRFTISRDNAKNTVYLQMNSLKPVDTAVYYCAAATRVPGHGSTSYYYWGQGTQVTVSS | high polyreactivity
15 | QVQLVESGGGLVQAGGSLRLSCAASGSTFYGYVMGWYRQAPGKERDFVAGITRGGSTNYADSVKGRFTISRDNAKNTVYLQMNSLKPEDTAVYYCATRYFSRYYYWGQGTQVTVSS | high polyreactivity
16 | QVQLVESGGGLVQAGGSLRLSCAASGSTFYHYAMGWYRQAPGKERELVAAISSSGGRTYYADSVKGRFTISRDNAKNTVYLQMNSLKPEDTAVYYCAARAKTSGSIEDYWGQGTQVTVSS | high polyreactivity
17 | QVQLVESGGGLVQAGGSLRLSCAASGSTFYINALGWYRQAPGKESELVAAITWNSDSTYYADSVKVRFTISRDNSKNTVYLQMNSLKPEDTAVYYCNHDRIIWGRLYEEGDYWGQGTQVTVSS | low polyreactivity
18 | QVQLVESGGGLVQAGGSLRLSCAASGSTFYIYAMGWSRQAPGKEREFVAAIDFSGSSTYADSVKGRFTISLDNAKNTVYLQMNSLKPEDTAVYYCAAYQIYQYYGPYDYWGQGTQVTVSS | low polyreactivity
19 | QVQLVESGGGLVQAGGSLRLSCAASGSTFYIYAMGWYRQAPGKEREFVAAIDLSGSSTYADSVKGRFTISRDNAKNTVYLQMKSLKPEDTAVYYCAAYQIYQYDGPYDYWGQGTQVTVSS | low polyreactivity
20 | QVQLVESGGGLVQAGGSLRLSCAASGSTFYIYAMGWYRQAPGKERELVARITRGGTTYADSVKGRFTISRDNAKNTVYLQMNSLKLEDTAVYYCNAASKTTRYYQAFYSGGGYWGQGTQVTVSS | high polyreactivity
21 | QVQLVESGGGLVQAGGSLRLSCAASGSTFYIYAMGWYRQATGKERELVARITRGGTTYADSEKGRFTISRDNAKNTVYLQMNSLKPEDTAVYYCNAASKTTRYYQAFYSGGGYWGQGTQVTVSS | high polyreactivity
22 | QVQLVESGGGLVQAGGSLRLSCAASGSTFYIYGMGWYRQAPGKERELVAAISQRDGSTYYADSEKGRFTSSRDNAKNTVYLQMNSLKPEDTAVYYCNAGLWYSSYDSDYWGQGTQVTVSS | low polyreactivity
23 | QVQLVESGGGLVQAGGSLRLSCAASGSTFYKNAMGWYRQAPGKERELVAAITRSGGSTYYADSVKGRFTISRDNAKNTVYLQMNSLKPVDTAVYYCAYYPYGYDYWGQGTQVTVSS | high polyreactivity
24 | QVQLVESGGGLVQAGGSLRLSCAASGSTFYKYAMGWYRQAPGKERELVASISRSGGSTSYADSVKGRFTISRDNAKNTVYLQMNSLKPEDTAVYYCAATWRQHPGSMGYWGQGTQVTVSS | high polyreactivity
25 | QVQLVESGGGLVQAGGSLRLSCAASGSTFYKYAMGWYRQAPGKERELVASISRSGGSTSYADSVKGRFTISRDNAKNTVYLQMNSLKPEDTEVYYCAATWRQHPGSMGYWGQGTQVTVSS | high polyreactivity
26 | QVQLVESGGGLVQAGGSLRLSCAASGSTFYKYAMGWYRQAPGQVREVVASISSSGGSTYADSVKGRFTISRDNAKNTVYLQMNSLKPEDTAVYYCARVRWIVPWSGPTDDYWGQGTQVTVSS | low polyreactivity
27 | QVQLVESGGGLVQAGGSLRLSCAASGSTFYKYGMGWYRQAPGTERELVAAISGSGDSTYYADSVKGRFTISRDNAKNTVYLQMNSLKPEDTAVYYCNAGPWWYLHEYDYWGQGTQVTVSS | low polyreactivity
28 | QVQLVESGGGLVQAGGSLRLSCAASGSTFYLYAMGWYRQAPGKEREFVARISASGGNTYYADSVKGRFTISRDNAKNTVYLQMNSLKPEDTAVYYCATRGSRYPYVAYNYWGQGTQVTVSS | high polyreactivity
29 | QVQLVESGGGLVQAGGSLRLSCAASGSTFYLYAMGWYRQAPGKERELVAAISSGGRTNYADSVKGRFTISLDNAKNTVYLQINSLKPEDTAVYYCAARIQWPTWSLYYYWGQGSQVTVSS | high polyreactivity
30 | QVQLVESGGGLVQAGGSLRLSCAASGSTFYNYAMGWYRQAPGKERELVAAITSSGGSTYYADSVKGRFTISRDNAKNTVYLQMNSLKPEDTAVYYCAATRRDRRKSFTYRYDYWGQGTQVTVSS | high polyreactivity
